Experimental data reported in the supplement of paper PMC9732359.
± gives the uncertainty stated by the source.

Experiment: protein stability index of a GFP-peptide fusion (yeast GPS) (PSI 1-4); higher = more stable; sorted into four equal gates, so the index is relative within each strain
Outline: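 Tiled yeast protein peptides of 17 residues were each joined downstream of GFP, on plasmids that also express Cherry. The pooled library was maintained in yeast, and mid-log cultures in leucine-free medium were sorted into four equal gates on the GFP/Cherry ratio. Plasmids from every gate were amplified by PCR and sequenced on Illumina, with barcodes linking reads to strains. The protein stability index of a peptide is its gate-number-weighted read frequency summed over the gates.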

| Sequence | protein stability index (doa10∆) | protein stability index (pdr5∆) | protein stability index (san1∆) | protein stability index (ubr1∆) |
| --- | --- | --- | --- | --- |
| PLASEESLTNSNMFDNS [YGL100W/SEH1] | 3.38 ± 0.18 | 3.02 ± 0.19 | 3.07 ± 0.12 | 3.29 ± 0.086 |
| SGTSSDPDTKKVKESPA [YIL149C/MLP2] | 3.21 ± 0.059 | 3.2 ± 0.046 | 3.14 ± 0.038 | 3.23 ± 0.061 |
| TLHLVLRLRGGGKKRKK [RPS31] | 2.34 ± 0.26 | 2.32 ± 0.084 | 2.83 ± 0.3 | 2.86 ± 0.14 |
| TAVATLLKELSKNAQFI [SMC3] | 2.88 ± 0.071 | 2.66 ± 0.052 | 2.8 ± 0.049 | 2.66 ± 0.048 |
| CFDSTTGRDAGFGILED [RRP40] | 3.33 ± 0.13 | 3.24 ± 0.13 | 3.47 ± 0.12 | 3.41 ± 0.074 |
| YDALLSINVHSNNITSG [RET1] | 2.52 ± 0.061 | 2.66 ± 0.057 | 2.59 ± 0.059 | 2.76 ± 0.04 |
| HTPTIASYLTPLLEAKK [SSN2] | 3.04 ± 0.063 | 3.04 ± 0.051 | 3.01 ± 0.049 | 3.07 ± 0.048 |
| TALDAEGAARGTSVYLV [DIS3] | 2.24 ± 0.13 | 1.58 ± 0.082 | 2.47 ± 0.12 | 2.28 ± 0.096 |
| PSQGVHYKVPTDTSTTA [MED6] | 2.34 ± 0.043 | 2.84 ± 0.046 | 2.37 ± 0.06 | 2.76 ± 0.037 |
| TLYIGNTANGRPPVKAI [ECM29] | 1.84 ± 0.17 | 2 ± 0.094 | 1.99 ± 0.11 | 1.47 ± 0.11 |
| IIQPFLDNSKMDYHFIF [RGR1] | 2.99 ± 0.13 | 2.06 ± 0.082 | 2.22 ± 0.049 | 2.31 ± 0.11 |
| VAALALLFAINSYQPSP [SMC1] | 1.62 ± 0.059 | 1.55 ± 0.073 | 1.89 ± 0.11 | 2.42 ± 0.055 |
| GGSATARHKKKVENLDY [YML031W/NDC1] | 3.4 ± 0.14 | 3.38 ± 0.14 | 3.06 ± 0.12 | 3.62 ± 0.29 |
| TNDDSIKNLTVQLSPSN [RGR1] | 2.8 ± 0.074 | 2.79 ± 0.059 | 2.56 ± 0.056 | 2.58 ± 0.05 |
| EIENLDKELRKTKFQYK [YIL149C/MLP2] | 2.73 ± 0.081 | 3.02 ± 0.086 | 3.07 ± 0.067 | 2.92 ± 0.074 |
| ITHAHSLSNPNSTATMQ [PGD1] | 2.8 ± 0.055 | 2.44 ± 0.054 | 2.5 ± 0.063 | 2.86 ± 0.043 |
| SNTIDELSTDIILKTRQ [SRB7] | 2.96 ± 0.076 | 3.19 ± 0.083 | 3.18 ± 0.089 | 3.03 ± 0.063 |
| NDPNAAVNMTQNIMTLP [MED6] | 2.97 ± 0.14 | 2.95 ± 0.089 | 2.71 ± 0.08 | 3.11 ± 0.059 |
| EDNKYAIAGNSTTNSDV [RGR1] | 2.89 ± 0.13 | 2.92 ± 0.12 | 2.99 ± 0.06 | 2.93 ± 0.08 |
| TKEELESDGRMFIEEPT [SRP54] | 2.58 ± 0.091 | 3.11 ± 0.14 | 2.96 ± 0.099 | 2.71 ± 0.055 |
| HQGTPLGSHSSSQKDGN [REC8] | 3.21 ± 0.094 | 3.29 ± 0.093 | 2.88 ± 0.13 | 3.35 ± 0.089 |
| ISALTQTEIKDIILGQN [PRP8] | 2.1 ± 0.054 | 2.51 ± 0.061 | 1.92 ± 0.077 | 1.99 ± 0.052 |
| KNNNNANNNGSNLQRAQ [GAL11] | 3.38 ± 0.13 |  | 3.28 ± 0.14 | 3.02 ± 0.11 |
| SAYEASMVYSNVGELIE [RRP4] | 1.64 ± 0.057 | 2.22 ± 0.054 | 2.32 ± 0.058 | 1.85 ± 0.048 |
| IDLDHKRFLILQGEVEN [SMC4] | 1.58 ± 0.073 | 2.09 ± 0.087 | 1.81 ± 0.09 | 2.46 ± 0.057 |
| IPTNPVDNENNKPAIKE [SWI3] | 2.95 ± 0.074 | 3.1 ± 0.083 | 2.89 ± 0.11 | 3.21 ± 0.068 |
| GISDMCRLFFTELASKD [YCS4] | 2.37 ± 0.085 | 2.4 ± 0.087 | 2.18 ± 0.1 | 2.61 ± 0.078 |

| Sequence | protein stability index (doa10∆) | protein stability index (pdr5∆) | protein stability index (san1∆) | protein stability index (ubr1∆) |
| --- | --- | --- | --- | --- |
| DWPTYVDQNPLTMHKII [SRB8] | 2.45 ± 0.09 | 2.76 ± 0.08 | 2.69 ± 0.074 | 2.91 ± 0.07 |
| LVEPSKVGQFDQVLNLC [FAS1] | 2.35 ± 0.13 | 2.41 ± 0.09 | 2.78 ± 0.11 | 2.73 ± 0.16 |
| VHDKIWCCRSGSAADTQ [PRE3] | 2.59 ± 0.07 | 2.92 ± 0.076 | 2.64 ± 0.081 | 2.65 ± 0.048 |
| ELSDNEENFEATRTLVA [YCG1] | 3.13 ± 0.12 | 3.09 ± 0.096 | 2.89 ± 0.14 | 3.04 ± 0.081 |
| TNVPKAKKRKTLILIQN [SIR3] | 1.67 ± 0.18 | 1.63 ± 0.12 | 1.33 ± 0.22 | 1.4 ± 0.1 |
| VLTNIEVYRTSLNTKKN [SMC3] | 2.61 ± 0.17 | 3.08 ± 0.19 |  | 2.85 ± 0.12 |
| APGKVELAINLIRFDES [SMC2] | 3.12 ± 0.16 | 3.11 ± 0.11 | 3.52 ± 0.12 | 2.83 ± 0.08 |
| MCQNPMQKPVPFVPVLD [FAS1] | 1.47 ± 0.039 | 1.54 ± 0.034 | 1.29 ± 0.061 | 1.52 ± 0.031 |
| TLVNKSTGLKSASDALK [RPS1A] | 2.94 ± 0.11 | 3.1 ± 0.11 | 3.42 ± 0.092 | 3.23 ± 0.074 |
| IVALTNAKDKERLQLLE [SMC3] | 3.22 ± 0.19 | 3.29 ± 0.13 | 3.01 ± 0.07 | 3.21 ± 0.11 |
| SLFHIVVDTEETATLIM [SMC3] | 2.35 ± 0.15 | 2.17 ± 0.15 | 1.68 ± 0.17 | 2.23 ± 0.098 |
| MKQYRDFLGVASTGSGK [PRP28] | 2.77 ± 0.1 | 2.72 ± 0.12 | 2.88 ± 0.061 | 2.93 ± 0.043 |
| IWKESLIELSGGQRSLI [SMC2] | 1.75 ± 0.14 | 2.12 ± 0.091 | 1.98 ± 0.16 | 1.56 ± 0.12 |
| TGWNAKTYGISDDIISQ [FAS2] | 1.99 ± 0.14 | 1.12 ± 0.12 | 1.72 ± 0.24 | 1.2 ± 0.091 |
| RHSGKVYPITLSTDATS [UBP6] | 1.98 ± 0.072 | 2.76 ± 0.066 | 2.74 ± 0.057 | 2.02 ± 0.045 |
| PNIRTMSGTTKRLNGKR [SSN2] | 2.24 ± 0.23 | 2.74 ± 0.22 | 2.39 ± 0.17 | 3.46 ± 0.11 |
| PEGRLYQVEYAFKATNQ [SCL1] | 2.65 ± 0.086 | 2.88 ± 0.067 | 1.78 ± 0.1 | 2.32 ± 0.062 |
| NILNMSMNNDFQQQQQQ [PGD1] | 2.68 ± 0.078 | 3.04 ± 0.084 | 2.83 ± 0.066 | 2.67 ± 0.071 |
| VTEANIIKLVEGLANDP [RPS12] | 2.51 ± 0.12 | 2.76 ± 0.073 | 2.67 ± 0.085 | 2.73 ± 0.073 |
| IEEHPTVVDAIDNSDEI [IRR1] | 3.35 ± 0.13 | 3.12 ± 0.076 | 3.38 ± 0.069 | 3.1 ± 0.06 |
| AAVVKTSSRQTVFLPMV [RPT5] | 3.02 ± 0.051 | 3.15 ± 0.056 | 2.97 ± 0.051 | 2.87 ± 0.061 |
| NFGGGNNTTPSSTGNAN [YJL041W/NSP1] | 2.05 ± 0.058 | 2.02 ± 0.055 | 1.73 ± 0.079 | 3.06 ± 0.071 |
| SNSSSSPPIIDLFSNNN [MED1] | 2.77 ± 0.06 | 2.82 ± 0.05 | 2.83 ± 0.042 | 2.9 ± 0.042 |
| IDMLPMLLGTDLCSLKP [DIS3] | 2.74 ± 0.066 | 2.71 ± 0.065 | 2.69 ± 0.07 | 2.45 ± 0.057 |
| QLFSTFDRLNGNDTISK [SSN2] | 3.03 ± 0.15 | 3.02 ± 0.087 | 3.19 ± 0.076 | 2.96 ± 0.048 |
| TGHSQGLVTAVAIAETD [FAS1] | 3.25 ± 0.14 | 3.44 ± 0.078 | 3.29 ± 0.098 | 3.25 ± 0.095 |
